Measured values taken from publication PMC4046112, “eIF2B is a decameric guanine nucleotide exchange factor with a γ2ε2 tetrameric core” (Nature Communications, 2014).

T1: eIF2Bγ, FLAG-tagged (γ-subunit of yeast eIF2B) (S. cerevisiae, UniProt P09032 1-578)
T1 construct: eIF2B gamma subunit (GCD1), S. cerevisiae; Bait of all eIF2B complex purifications; also called GCD1-FLAG2-His6; source: S. cerevisiae strains overexpressing eIF2B subunits, purified (anti-FLAG resin, FLAG peptide elution); not shown: FLAG2, C-terminal, kept
T1 sequence (looked up): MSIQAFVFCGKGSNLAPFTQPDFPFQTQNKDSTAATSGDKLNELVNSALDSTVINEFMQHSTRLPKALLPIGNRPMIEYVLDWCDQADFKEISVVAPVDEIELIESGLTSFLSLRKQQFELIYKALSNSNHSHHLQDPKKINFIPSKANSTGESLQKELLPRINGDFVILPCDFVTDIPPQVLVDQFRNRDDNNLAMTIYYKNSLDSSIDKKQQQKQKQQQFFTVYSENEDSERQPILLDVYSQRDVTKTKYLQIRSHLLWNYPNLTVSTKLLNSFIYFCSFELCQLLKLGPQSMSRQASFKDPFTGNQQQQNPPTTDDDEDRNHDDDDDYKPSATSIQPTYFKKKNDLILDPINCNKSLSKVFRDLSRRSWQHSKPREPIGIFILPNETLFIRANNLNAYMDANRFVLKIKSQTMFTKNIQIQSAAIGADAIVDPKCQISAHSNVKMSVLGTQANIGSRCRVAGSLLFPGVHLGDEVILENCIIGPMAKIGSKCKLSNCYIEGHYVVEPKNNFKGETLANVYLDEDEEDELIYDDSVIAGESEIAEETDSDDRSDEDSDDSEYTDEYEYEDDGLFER

B1: eIF2Bα (α-subunit of yeast eIF2B) (natural protein, S. cerevisiae, UniProt P14741 1-305, looked up)
chain: MSEFNITETYLRFLEEDTEMTMPIAAIEALVTLLRIKTPETAAEMINTIKSSTEELIKSIPNSVSLRAGCDIFMRFVLRNLHLYGDWENCKQHLIENGQLFVSRAKKSRNKIAEIGVDFIADDDIILVHGYSRAVFSLLNHAANKFIRFRCVVTESRPSKQGNQLYTLLEQKGIPVTLIVDSAVGAVIDKVDKVFVGAEGVAESGGIINLVGTYSVGVLAHNARKPFYVVTESHKFVRMFPLSSDDLPMAGPPLDFTRRTDDLEDALRGPTIDYTAQEYITALITDLGVLTPSAVSEELIKMWYD
notes: eIF2B alpha subunit (GCN3), S. cerevisiae; Subunit of the purified eIF2B complex, written alone for the subunit pairs; also called eIF2B α-subunit; GCN3
B2: eIF2γ, His-tagged (γ-subunit of yeast eIF2) (natural protein, S. cerevisiae, UniProt P32481 1-527, looked up)
chain: MSDLQDQEPSIIINGNLEPVGEPDIVEETEVVAQETQETQDADKPKKKVAFTGLEEDGETEEEKRKREFEEGGGLPEQPLNPDFSKLNPLSAEIINRQATINIGTIGHVAHGKSTVVRAISGVQTVRFKDELERNITIKLGYANAKIYKCQEPTCPEPDCYRSFKSDKEISPKCQRPGCPGRYKLVRHVSFVDCPGHDILMSTMLSGAAVMDAALLLIAGNESCPQPQTSEHLAAIEIMKLKHVIILQNKVDLMREESALEHQKSILKFIRGTIADGAPIVPISAQLKYNIDAVNEFIVKTIPVPPRDFMISPRLIVIRSFDVNKPGAEIEDLKGGVAGGSILNGVFKLGDEIEIRPGIVTKDDKGKIQCKPIFSNIVSLFAEQNDLKFAVPGGLIGVGTKVDPTLCRADRLVGQVVGAKGHLPNIYTDIEINYFLLRRLLGVKTDGQKQAKVRKLEPNEVLMVNIGSTATGARVVAVKADMARLQLTSPACTEINEKIALSRRIEKHWRLIGWATIKKGTTLEPIA
notes: eIF2 gamma subunit (GCD11), S. cerevisiae; also called GCD11-His6; source: S. cerevisiae strain GP3511 co-overexpressing all three eIF2 subunits, purified (Ni-chelate, heparin-Sepharose); not shown: His6, C-terminal, kept
B3: eIF2Bε (ε-subunit of yeast eIF2B, untagged) (natural protein, S. cerevisiae, UniProt P32501 1-712, looked up)
chain: MAGKKGQKKSGLGNHGKNSDMDVEDRLQAVVLTDSYETRFMPLTAVKPRCLLPLANVPLIEYTLEFLAKAGVHEVFLICSSHANQINDYIENSKWNLPWSPFKITTIMSPEARCTGDVMRDLDNRGIITGDFILVSGDVLTNIDFSKMLEFHKKMHLQDKDHISTMCLSKASTYPKTRTIEPAAFVLDKSTSRCIYYQDLPLPSSREKTSIQIDPELLDNVDEFVIRNDLIDCRIDICTSHVPLIFQENFDYQSLRTDFVKGVISSDILGKHIYAYLTDEYAVRVESWQTYDTISQDFLGRWCYPLVLDSNIQDDQTYSYESRHIYKEKDVVLAQSCKIGKCTAIGSGTKIGEGTKIENSVIGRNCQIGENIRIKNSFIWDDCIIGNNSIIDHSLIASNATLGSNVRLNDGCIIGFNVKIDDNMDLDRNTKISASPLKNAGSRMYDNESNEQFDQDLDDQTLAVSIVGDKGVGYIYESEVSDDEDSSTEACKEINTLSNQLDELYLSDDSISSATKKTKKRRTMSVNSIYTDREEIDSEFEDEDFEKEGIATVERAMENNHDLDTALLELNTLRMSMNVTYHEVRIATITALLRRVYHFIATQTLGPKDAVVKVFNQWGLLFKRQAFDEEEYIDLMNIIMEKIVEQSFDKPDLILFSALVSLYDNDIIEEDVIYKWWDNVSTDPRYDEVKKLTVKWVEWLQNADEESSSEEE
notes: eIF2B epsilon subunit (GCD6), S. cerevisiae; Subunit of the purified eIF2B complexes, written alone for the subunit pairs; also called eIF2B ε-subunit; ε/GCD6
B4: eIF2Bβ (β-subunit of yeast eIF2B) (natural protein, S. cerevisiae, UniProt P32502 1-381, looked up)
chain: MSSQAFTSVHPNAATSDVNVTIDTFVAKLKRRQVQGSYAIALETLQLLMRFISAARWNHVNDLIEQIRDLGNSLEKAHPTAFSCGNVIRRILAVLRDEVEEDTMSTTVTSTSVAEPLISSMFNLLQKPEQPHQNRKNSSGSSSMKTKTDYRQVAIQGIKDLIDEIKNIDEGIQQIAIDLIHDHEILLTPTPDSKTVLKFLITARERSNRTFTVLVTEGFPNNTKNAHEFAKKLAQHNIETLVVPDSAVFALMSRVGKVIIGTKAVFVNGGTISSNSGVSSVCECAREFRTPVFAVAGLYKLSPLYPFDVEKFVEFGGSQRILPRMDPRKRLDTVNQITDYVPPENIDIYITNVGGFNPSFIYRIAWDNYKQIDVHLDKNKA
notes: eIF2B beta subunit (GCD7), S. cerevisiae; Subunit of the purified eIF2B complexes, written alone for the subunit pairs; also called eIF2B β-subunit; β/Gcd7
B5: eIF2Bδ (δ-subunit of yeast eIF2B) (natural protein, S. cerevisiae, UniProt P12754 1-651, looked up)
chain: MSESEAKSRSATPPSKAKQATPTTTAAANGEKKLTNKELKELKKQEKAAKRAAMKQANGISIEQQQQQAQMKKEKKQLQREQQQKREQKQKNANKKKQNERNVKKSTLFGHLETTEERRATILALTSAVSSPKTSRITAAGLMVPVVASALSGSNVLTASSLMPVGPNASSTVSASAPASTTTTLPASSAALSAGTSSASTNTPTAIQQEIASSNASDVAKTLASISLEAGEFNVIPGISSVIPTVLEQSFDNSSLISSVKELLLNKDLIHPSILLLTSHLAHYKIVGSIPRCIAMLEVFQIVIKDYQTPKGTTLSRNLTSYLSHQIDLLKKARPLSVTMGNAIRWLKQEISLIDPSTPDKAAKKDLCEKIGQFAKEKIELADQLIIDNASTQIEESTTIVTYGSSKVLTELLLHNAISLKKNIKVIVVDSRPLFEGRKMAETLRNAGVNVMYALITSLDTIFNMDVDYVFLGAHSILSNGFLYSRAGTAMLAMSAKRRNIPVLVCCESLKFSQRVQLDSVTFNELADPNDLVNIDYENPVERRGNKGALLNQFIKERKFEKKKLAMENKPKGNKIGGKKGSEGESKDASNEEDSNSKNILDGWQELPSLNIVNILYDLTPPEYIKKVITEFGALPPSSVPVILREYKGSA
notes: eIF2B delta subunit (GCD2), S. cerevisiae; Subunit of the purified eIF2B complexes, written alone for the subunit pairs; also called eIF2B δ-subunit; δ/Gcd2

What was measured:
[1] = target: yeast FLAG-tagged eIF2B complex (five subunits α–ε; decamer) (S. cerevisiae) (UniProt P14741); assay: native MS; FLAG-purified five-subunit eIF2B in 500 mM ammonium acetate; high collision energy for dissociation; decamer = two copies of each of five subunits
[2] = target: yeast FLAG-tagged eIF2B complex (five subunits α–ε; decamer) (S. cerevisiae) (UniProt P14741); assay: native MS; eIF2-eIF2B preparations (purified at low ionic strength, or formed with phosphorylated eIF2 on anti-FLAG resin) exchanged into 500 mM ammonium acetate
[3] = target: T1, eIF2Bγ, FLAG-tagged (γ-subunit of yeast …); assay: label-free quantitative proteomics (iBAQ) of the purified complex; eIF2-eIF2B complex purified after phosphorylation of eIF2, trypsin digest, nanoLC-MS/MS, iBAQ intensities compared; eIF2B subunits relative to FLAG-tagged γ (set to 1), eIF2 subunits relative to α; conditions: both partners purified
[4] = target: eIF2α phosphorylated at Ser51 (subunit of phosphorylated eIF2) (S. cerevisiae) (UniProt P20459); assay: as above
[5] = target: B5; assay: cross-linking; BS3-d0/d4 (1:1) added to purified complexes (eIF2:eIF2B, four-subunit eIF2B, eIF2Bγε core), 30 min at 26 °C, trypsin digest, nanoLC-MS/MS, MassMatrix search; the text does not tell which cross-link came from which complex; conditions: both partners purified
[6] = target: T1, eIF2Bγ, FLAG-tagged (γ-subunit of yeast …); assay: as above; conditions: both partners purified
[7] = target: B3; assay: as above; conditions: both partners purified

Molecule	stoichiometry N [3]	binding result [5]	binding result [7]	also measured
yeast FLAG-tagged eIF2B complex (five subunits α–ε; decamer), P14741 1-305; P32502 1-381; P09032 1-578; P12754 1-651; P32501 1-712				stoichiometry N [1]: 10; stoichiometry N [2]: 10
B1	1.12			
B2		binds		stoichiometry N [4]: 1.67; binding result [6]: binds
B3	0.76			
B4	1.4	binds	binds	
B5	0.95		binds	
